{
  "source": "paper PMC7870846",
  "about": "“Incorporation of sensing modalities into de novo designed fluorescence-activating proteins” (Nature Communications, 2021)",
  "molecules": {"B1": {"name": "EF1p2_mFAP2b (K101A): K101A lysine-to-alanine substitution in EF1p2_mFAP2b (protein)", "chain": "SRAAQLLPGTWQVTMTNEDGQTSQGQWHFQPRSPYTMDIVAQGTISDGRPIVGYGKATVKTPDTLDIDITYPSLGNIKAQGQITMDSPTQFKWDAHYKGDADGDGYISAAEAAAQGLTGTLQRQE"}, "B2": {"name": "EF1p_mFAP2b: positively allosteric Ca2+-responsive mFAP, one EF-hand motif (protein)", "chain": "B1 chain with A101K, G116I"}, "B3": {"name": "mFAP_pH: particularly pH-responsive variant (protein)", "chain": "SRAAQLLPGTWQVTMTNEDGQTSQGQMHFQPRSPYTMDIVAQGTISDGRPIVGYGKATVKTPDTLDIDITYPSLGNIKAQGQITMDSPTQFKFDATTKGENDFHGRLTGTLQRQE"}},
  "key": {"[1]": {"assay": "Ca2+-responsive mFAP Ca2+ titrations", "assay_type": "binding", "settings": "in the presence of excess DFHBI", "procedure": "In measuring Ca^2+ affinity of mFAPs on a Synergy Neo2 hybrid multi-mode reader (Fig. 4d, e, f and Supplementary Figs. 10c, f, i, 11c, f, i, 13c, f, i, 16b), large-scale purified proteins[49] were aliquoted in technical triplicate to a final concentration of 500 nM with 5.00 μM DFHBI in eleven serial dilutions ( 10 dilution factor) of CaCl2 (Sigma Aldrich) starting from either 900 mM or 90.0 mM CaCl2 (diluted using high-salt Tev cleavage buffer) including a twelfth condition without CaCl2. Final volumes were 200 μL in flat bottom, black polystyrene, non-binding surface 96-well microplates (Corning 3650). Fluorescence endpoints were measured using excitation wavelength λex = 484 nm and emission wavelength λem = 508 nm. Background fluorescence endpoints of wells with identical chromophore and CaCl2 concentrations lacking protein (substituted for equivalent volumes of high-salt Tev cleavage buffer) were measured in technical triplicate, averaged per condition, and subtracted from protein measurement averages of the same conditions.\nFor Ca^2+ titrations of EF4n_mFAP2a and EF4n_mFAP2b (Supplementary Fig. 13c), a small amount of Chelex 100 sodium form (Sigma Aldrich) was added to purified protein (produced by large-scale protein purification and SEC purification[49]) and nutated at 4 °C overnight. EF4n_mFAP2a was aliquoted in technical triplicate to a final concentration of 8.00 μM with 80.0 μM DFHBI and EF4n_mFAP2b was aliquoted in technical triplicate to a final concentration of 6.25 μM with 43.4 μM DFHBI, in eleven serial dilutions ( 10 dilution factor) of CaCl2 starting from 9.00 mM or 4.00 mM CaCl2 (diluted using high-salt Tev cleavage buffer pre-treated with Chelex 100) including a twelfth condition without CaCl2. Final volumes were 25.0 μL in flat bottom, black polystyrene, non-binding surface 96-well half-area microplates (Corning 3686) or 200 μL in flat bottom, black polystyrene, non-binding surface 96-well microplates (Corning 3650). Fluorescence endpoints were measured for EF4n_mFAP2a using excitation wavelength λex = 478 nm and emission wavelength λem = 520 nm, and for EF4n_mFAP2b using excitation wavelength λex = 484 nm and emission wavelength λem = 508 nm. Background fluorescence endpoints of wells with identical chromophore and CaCl2 concentrations lacking protein (substituted for equivalent volumes of high-salt Tev cleavage buffer) were measured in technical triplicate, averaged per condition, and subtracted from protein measurement averages of the same conditions. For non-linear least squares fitting to obtain Kd values, means were fit to a single-binding site isotherm function where Ca^2+-binding sites were modeled independently with a Hill coefficient of 1."}, "[2]": {"assay": "Ca2+-responsive mFAP DFHBI titrations", "assay_type": "binding", "settings": "in the presence of excess Ca2+ (Kd+)", "procedure": "Final volumes were 25.0 μL in flat bottom, black polystyrene, non-binding surface 96-well half-area microplates (Corning 3686) or 200 μL in flat bottom, black polystyrene, non-binding surface 96-well microplates (Corning 3650). Fluorescence endpoints were measured using excitation wavelength λex = 488 nm and emission wavelength λem = 510 nm. Background fluorescence endpoints of wells with identical chromophore concentrations lacking protein (substituted for equivalent volumes of high-salt Tev cleavage buffer) were measured and subtracted from protein measurements prior to normalization.\nFor DFHBI titrations of EF4n_mFAP2a and EF4n_mFAP2b (Supplementary Fig. 13a, b), a small amount of Chelex 100 sodium form (Sigma Aldrich) was added to purified protein (produced by large-scale protein purification and SEC purification[49]) and nutated at 4 °C overnight. […] Fluorescence endpoints were measured using excitation wavelength λex = 488 nm and emission wavelength λem = 510 nm for EF4n_mFAP2b, and excitation wavelength λex = 478 nm and emission wavelength λem = 520 nm for EF4n_mFAP2a. Background fluorescence endpoints of wells with identical chromophore concentrations lacking protein (substituted for equivalent volumes of Chelex 100 pre-treated high-salt Tev cleavage buffer) were measured and subtracted from protein measurements prior to normalization."}, "[3]": {"system": "HEK293 cells", "assay": "HEK293 cell surface-displayed Ca2+ titrations", "assay_type": "cell-based", "settings": "Ca2+ from 0 to 10 mM; 7.00 µM DFHBI; extracellular display", "procedure": "Plasmid DNAs (Supplementary Data 15 and Supplementary Data 17) were purified in ddH2O for transfections. pGP-CMV-GCaMP6f was a gift from Douglas Kim & GENIE Project (Addgene plasmid #40755; [http://n2t.net/addgene:40755]; RRID: Addgene_40755). Wild-type HEK293 cells (ATCC CRL-1573) were cultured on 24-well plates in DMEM media (4.5 g L^−1 D-glucose, L-glutamine; ThermoFisher #11965-092) supplemented with 10% FBS and 1% Penicillin/Streptomycin in a 5% CO2 atmosphere at 37 °C. Cells were seeded into 24-well plates (ThermoFisher #FB012929) at 100,000 cells well^−1. Twenty-four hours after seeding, cell media was aspirated and replaced with 200 μL of DMEM media. […]\nData analysis: Regions of interest (ROIs) surrounding single cells from three technical replicates were hand-drawn in ImageJ software. For each cellular ROI in each frame the average fluorescence was calculated in ImageJ. In order to perform background subtraction, cellular ROIs were then moved proximal to the original cell to an ROI where there was no fluorescence. Each cellular ROIs average fluorescence had the average background intensity subtracted for each frame. […]"}, "[4]": {"assay": "pH-dependent fluorescence assays (pH titration)", "assay_type": "biochemical", "settings": "from pH 8.38 to pH 3.63", "procedure": "In measuring pH-dependent fluorescence (Fig. 3d–i), Na2HPO4-citrate buffer supplemented with 150 mM NaCl at unique pH values were produced via mixing various volumes of 100 mM citric acid (Sigma Aldrich), 200 mM Na2HPO4 (Sigma Aldrich), and 2.00 M NaCl, and final pHs quantified via an Accumet AB15 Basic pH meter (Fisher Scientific). pHRed and pHluorin2 were produced via large-scale protein purification, 6xHis-tag removal and size-exclusion chromatography (SEC) purification, and mFAP_pH and mFAP2b were produced via large-scale protein purification and SEC purification. pH-dependent fluorescence was measured at […] final protein concentration for mFAP2b, mFAP_pH and pHRed, and 170 nM final concentration for pHluorin2, at each pH in technical triplicate in 200 μL final volumes per well. […] In measuring fluorescence excitation spectra at each pH (Fig. 3d), excitation wavelengths were set to the range λex = 300–530 nm and fluorescence emission measured at λem = 562 nm. In measuring pH-dependent fluorescence excitation spectra at pH 3.76 and pH 7.34 (Fig. 3f, g), excitation spectra were measured using excitation wavelengths in the range λex = 300–540 nm and emission wavelength λem = 592 nm. […]"}},
  "note": "Positions count from the first letter of the chain named. Numbers in names are those of the source.",
  "data": [
    {"molecule": "B1", "values": [
      {"measurement": "reduction of Ca2+ affinity compared with EF1p2_mFAP2b", "setting": "[1]", "result": "~ 29 fold"},
      {"measurement": "reduction of DFHBI affinity compared with EF1p2_mFAP2b", "setting": "[2]", "result": "~ 21 fold"}
    ]},
    {"molecule": "B2", "values": [
      {"measurement": "fluorescence fold-change (ΔF/F0)", "setting": "[3]", "result": "~ 0.5"}
    ]},
    {"molecule": "B3", "values": [
      {"measurement": "fold-change in ratiometric fluorescence (Fratio)", "setting": "[4]", "result": "~ 250 fold"}
    ]}
  ]
}
